According to paper PMC8835488, “Production and Biochemical Characterization of Dimeric Recombinant Gremlin-1” (International Journal of Molecular Sciences, 2022):

Key:
[1] = molecular target: the molecule itself; assay: non-reducing SDS-PAGE with anti-gremlin Western blot; IMAC-purified gremlin (250 mM imidazole eluate), SDS-PAGE without DTT; shows disulfide-bound dimer beside monomer
[2] = molecular target: the molecule itself; assay: non-reducing SDS-PAGE; bought 10xHis-tagged gremlin from murine myeloma cells, several batches (Figure S1); SDS-PAGE under reducing or non-reducing conditions

| Protein | dimer vs. monomer ratio [1] [%] | stoichiometry N [1] | stoichiometry N [2] |
| --- | --- | --- | --- |
| recombinant rat gremlin-1 with C-terminal hexa-histidine tag (pcDNA3-Gremlin-1-HisTag) (natural protein, UniProt O35793 25-184, looked up, N-glycosylated in part (glycosylated ~30–45%, non-glycosylated ~70–55% of the protein), gremlin-1, rat; secreted protein; the 0.8–0.9 M NaCl heparin-sepharose fractions hold the dimer; also called IMAC-purified gremlin; IMAC gremlin; source: HEK293T, transiently transfected, secreted into the supernatant; purified by IMAC (Ni2+ column), when indicated followed by heparin-sepharose chromatography; not shown: His6, C-terminal, kept) KKKGSQGAIPPPDKAQHNDSEQTQSPPQPGSRTRGRGQGRGTAMPGEEVLESSQEALHVTERKYLKRDWCKTQPLKQTIHEEGCNSRTIINRFCYGQCNSFYIPRHIRKEEGSFQSCSFCKPKKFTTMMVTLNCPELQPPTKKKRVTRVKQCRCISIDLD | ~20 | 2 | – |
| 10xhis-tagged gremlin expressed in murine myeloma cells (recombinant human gremlin-1 purchased from R&D) (natural protein, UniProt O60565 25-184, looked up, gremlin-1, human; No catalogue number is printed; source: bought: R&D; expressed in murine myeloma cells, IMAC-purified) KKKGSQGAIPPPDKAQHNDSEQTQSPQQPGSRNRGRGQGRGTAMPGEEVLESSQEALHVTERKYLKRDWCKTQPLKQTIHEEGCNSRTIINRFCYGQCNSFYIPRHIRKEEGSFQSCSFCKPKKFTTMMVTLNCPELQPPTKKKRVTRVKQCRCISIDLD | – | – | 2 |
